Columns and labels:
HLA-Cw*1402 (human) [1] = target: HLA-Cw*1402 (human) (UniProt P10321); experiment: Luminex beads; MAb 1/1600; competitor IgG-free serum
HLA-Cw*0303 (human) [2] = experiment: as above
HLA-B*2708 (human) [3] = target: HLA-B*2708 (human) (UniProt P01889); experiment: as above
HLA-B*5201 (human) [4] = experiment: as above
HLA-Cw*0702 (human) = HLA-Cw*0702 (human) (UniProt P10321); experiment: as above
HLA-B*5101 (human) [5] = experiment: as above
HLA-B*5801 (human) [6] = experiment: as above
HLA-B*1402 (human) = experiment: as above
HLA-Cw*0302 (human) = HLA-Cw*0302 (human) (UniProt P10321); experiment: as above
HLA-Cw*0304 (human) [7] = experiment: as above
HLA-B*4402 (human) = experiment: as above
HLA-B*4002 (human) = HLA-B*4002 (human) (UniProt P01889); experiment: as above
HLA-Cw*1701 (human) = experiment: as above
HLA-B*1511 (human) [8] = target: HLA-B*1511 (human) (UniProt P01889); experiment: as above
HLA-Cw*1502 (human) [9] = experiment: as above
HLA-B*4101 (human) [10] = target: HLA-B*4101 (human) (UniProt P01889); experiment: as above
HLA-B*1502 (human) = experiment: as above
HLA-B*4801 (human) = HLA-B*4801 (human) (UniProt P01889); experiment: as above
HLA-Cw*0801 (human) = HLA-Cw*0801 (human) (UniProt P10321); experiment: as above
HLA-Cw*1402 (human) [11] = target: HLA-Cw*1402 (human) (UniProt P10321); experiment: Luminex beads; MAb 1/100; competitor rHLA-E
HLA-Cw*0303 (human) [12] = experiment: Luminex beads; MAb 1/100; competitor rHLA-E
HLA-B*4403 (human) = experiment: Luminex beads; MAb 1/100; competitor rHLA-E
HLA-B*3701 (human) = experiment: Luminex beads; MAb 1/100; competitor rHLA-E
HLA-B*2708 (human) [13] = target: HLA-B*2708 (human) (UniProt P01889); experiment: Luminex beads; MAb 1/100; competitor rHLA-E
HLA-B*4001 (human) = HLA-B*4001 (human) (UniProt P01889); experiment: Luminex beads; MAb 1/100; competitor rHLA-E
HLA-B*1511 (human) [14] = target: HLA-B*1511 (human) (UniProt P01889); experiment: Luminex beads; MAb 1/100; competitor rHLA-E
HLA-B*4501 (human) [15] = experiment: Luminex beads; MAb 1/100; competitor rHLA-E
HLA-Cw*0501 (human) = experiment: Luminex beads; MAb 1/100; competitor rHLA-E
HLA-B*1401 (human) = HLA-B*1401 (human) (UniProt P01889); experiment: Luminex beads; MAb 1/100; competitor rHLA-E
HLA-Cw*0602 (human) = HLA-Cw*0602 (human) (UniProt P10321); experiment: Luminex beads; MAb 1/100; competitor rHLA-E
HLA-Cw*0202 (human) = experiment: Luminex beads; MAb 1/1600; PBS only
HLA-Cw*0303 (human) [16] = experiment: Luminex beads; MAb 1/1600; PBS only
HLA-B*0801 (human) = HLA-B*0801 (human) (UniProt P01889); experiment: Luminex beads; MAb 1/1600; PBS only
HLA-B*2708 (human) [17] = target: HLA-B*2708 (human) (UniProt P01889); experiment: Luminex beads; MAb 1/1600; PBS only
HLA-B*5201 (human) [18] = experiment: Luminex beads; MAb 1/1600; PBS only
HLA-B*4601 (human) = HLA-B*4601 (human) (UniProt P01889); experiment: Luminex beads; MAb 1/1600; PBS only
HLA-B*5101 (human) [19] = experiment: Luminex beads; MAb 1/1600; PBS only
HLA-B*5801 (human) [20] = experiment: Luminex beads; MAb 1/1600; PBS only
HLA-B*8201 (human) = HLA-B*8201 (human) (UniProt P01889); experiment: Luminex beads; MAb 1/1600; PBS only
HLA-Cw*0304 (human) [21] = experiment: Luminex beads; MAb 1/1600; PBS only
HLA-B*4701 (human) = experiment: Luminex beads; MAb 1/1600; PBS only
HLA-Cw*1502 (human) [22] = experiment: Luminex beads; MAb 1/1600; PBS only
HLA-B*4101 (human) [23] = target: HLA-B*4101 (human) (UniProt P01889); experiment: Luminex beads; MAb 1/1600; PBS only
HLA-B*4501 (human) [24] = experiment: Luminex beads; MAb 1/1600; PBS only
HLA-B*2705 (human) = HLA-B*2705 (human) (UniProt P01889); experiment: Luminex beads; MAb 1/1600; PBS only
HLA-Cw*1601 (human) = HLA-Cw*1601 (human) (UniProt P10321); experiment: Luminex beads; MAb 1/1600; PBS only

MFI (HLA-Cw*1402 (human) [1]): 432 MFI
MFI (HLA-Cw*0303 (human) [2]): 332 MFI
MFI (HLA-B*2708 (human) [3]): 272 MFI
MFI (HLA-B*5201 (human) [4]): 337 MFI
MFI (HLA-Cw*0702 (human)): 295 MFI
MFI (HLA-B*5101 (human) [5]): 281 MFI
MFI (HLA-B*5801 (human) [6]): 485 MFI
MFI (HLA-B*1402 (human)): 301 MFI
MFI (HLA-Cw*0302 (human)): 335 MFI
MFI (HLA-Cw*0304 (human) [7]): 370 MFI
MFI (HLA-B*4402 (human)): 248 MFI
MFI (HLA-B*4002 (human)): 403 MFI
MFI (HLA-Cw*1701 (human)): 392 MFI
MFI (HLA-B*1511 (human) [8]): 388 MFI
MFI (HLA-Cw*1502 (human) [9]): 317 MFI
MFI (HLA-B*4101 (human) [10]): 392 MFI
MFI (HLA-B*1502 (human)): 350 MFI
MFI (HLA-B*4801 (human)): 412 MFI
MFI (HLA-Cw*0801 (human)): 865 MFI
MFI (HLA-Cw*1402 (human) [11]): 165 MFI
MFI (HLA-Cw*0303 (human) [12]): 139 MFI
MFI (HLA-B*4403 (human)): 89 MFI
MFI (HLA-B*3701 (human)): 80 MFI
MFI (HLA-B*2708 (human) [13]): 191 MFI
MFI (HLA-B*4001 (human)): 235 MFI
MFI (HLA-B*1511 (human) [14]): 192 MFI
MFI (HLA-B*4501 (human) [15]): 75 MFI
MFI (HLA-Cw*0501 (human)): 201 MFI
MFI (HLA-B*1401 (human)): 230 MFI
MFI (HLA-Cw*0602 (human)): 88 MFI
MFI (HLA-Cw*0202 (human)): 785 MFI
MFI (HLA-Cw*0303 (human) [16]): 530 MFI
MFI (HLA-B*0801 (human)): 262 MFI
MFI (HLA-B*2708 (human) [17]): 396 MFI
MFI (HLA-B*5201 (human) [18]): 537 MFI
MFI (HLA-B*4601 (human)): 375 MFI
MFI (HLA-B*5101 (human) [19]): 347 MFI
MFI (HLA-B*5801 (human) [20]): 524 MFI
MFI (HLA-B*8201 (human)): 417 MFI
MFI (HLA-Cw*0304 (human) [21]): 512 MFI
MFI (HLA-B*4701 (human)): 804 MFI
MFI (HLA-Cw*1502 (human) [22]): 485 MFI
MFI (HLA-B*4101 (human) [23]): 645 MFI
MFI (HLA-B*4501 (human) [24]): 808 MFI
MFI (HLA-B*2705 (human)): 191 MFI
MFI (HLA-Cw*1601 (human)): 524 MFI
Substance: murine monoclonal antibody (MAb) MEM-E/02
